Source: US20230287143A1 (published 2023)
Each block holds one binder with its values, some of them ahead of it.

Experiments:
[1] = molecular target: T1, recombinant human BCMA-ECD-Fc fusion protein (ACRO Biosystems, #BC7-H82F0), biotinylated (human, UniProt Q02223 1-54, biotinylated with EZ-Link Sulfo-NHS-LC-Biotin (sites not given)); assay: BLI (Octet Red96e), biotinylated BCMA-ECD-Fc on SA sensor, binding protein 10-2.5 nM in solution, 1:1 global fitting
T1 construct: extracellular domain; Bought protein; also called biotinylated BCMA
T1 sequence (looked up): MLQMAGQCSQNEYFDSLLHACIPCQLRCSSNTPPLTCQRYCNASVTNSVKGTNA
Method: In this example, the binding kinetics between the BCMA binding protein and BCMA were analyzed by the Biolayer Interferometry (BLI) technique using an Octet molecular interaction analyzer (ForteBio, Octet Red96e).
Two columns of SA sensors (8 sensors in each column; with the sensors in the first column referred to as the reference SA sensor and the sensors in the second column referred to as the test SA sensor) were firstly equilibrated in the equilibration buffer for 10 min. Then, the biotinylated BCMA were captured by test SA sensors with a capture height of 0.2 nm, and the reference SA sensors were immersed in the buffer for 30 s. The two arrays of sensors were combined with the test BCMA-binding protein at concentrations obtained by a two-fold dilution from 10 nM to 2.5 nM and a concentration of 0 nM. The sensors were combined with the test proteins for 180 s and then dissociated for 800 s.
When data analysis was performed using Octet Data Analysis software (Fortebio, version 11.0), the reference signals were subtracted by a double reference mode; the data were fitted by a “1:1 Global fitting” method, and the kinetic parameters of the binding of the antigen to the antigen-binding protein were calculated to obtain kₒₙ (1/Ms) values, kdis (1/s) values and KD (M) values.

human PD-L1 = molecular target: T2, human PD-L1 (human, UniProt Q9NZQ7 19-290); assay: flow cytometry on CHO-K1/hPD-L1 cells
T2 construct: whole, on cells; also called CD274; B7-H1
Method: (§1) The cells were incubated at 4° C. for 1 h away from light. […] Then, the cells in each well were then rinsed twice with 200 μL of pre-cooled FACS buffer and centrifuged at 500 g at 4° C. for 5 min, and then the supernatant was discarded. Finally, a pre-cooled FACS buffer was added at 200 μL/well to resuspend the cells.

human 4-1BB = molecular target: T3, human 4-1BB (human, UniProt Q07011 24-255); assay: flow cytometry on CHO-K1/hu 4-1BB cells
T3 construct: whole, on cells; also called CD137; TNFRSF9
Method: as §1, with “Specifically, the cells were digested and resuspended in a complete medium, and the cell density was adjusted to 2×10⁶ cells/mL. […] The cells” for “The cells”

human CTLA4 = molecular target: T4, human CTLA4 (human, UniProt P16410 36-223); assay: flow cytometry on CHO-K1/hCTLA4 cells
T4 construct: whole, on cells; also called CD152; CHO-K1/hCTLA4
Method: as §1

T2 sequence (Q9NZQ7 19-290): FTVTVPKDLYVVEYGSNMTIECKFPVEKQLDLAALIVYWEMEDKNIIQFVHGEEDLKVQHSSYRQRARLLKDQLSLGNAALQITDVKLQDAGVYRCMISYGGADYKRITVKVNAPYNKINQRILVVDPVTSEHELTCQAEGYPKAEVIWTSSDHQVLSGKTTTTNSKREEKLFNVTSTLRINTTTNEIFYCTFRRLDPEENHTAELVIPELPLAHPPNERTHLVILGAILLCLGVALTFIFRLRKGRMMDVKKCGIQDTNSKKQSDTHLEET
T4 sequence (P16410 36-223): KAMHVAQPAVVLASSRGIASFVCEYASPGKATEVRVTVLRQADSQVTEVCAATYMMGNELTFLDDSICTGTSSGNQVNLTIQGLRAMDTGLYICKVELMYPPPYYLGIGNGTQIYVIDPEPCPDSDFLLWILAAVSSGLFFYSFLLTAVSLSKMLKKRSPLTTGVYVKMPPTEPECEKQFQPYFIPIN
T3 sequence (Q07011 24-255): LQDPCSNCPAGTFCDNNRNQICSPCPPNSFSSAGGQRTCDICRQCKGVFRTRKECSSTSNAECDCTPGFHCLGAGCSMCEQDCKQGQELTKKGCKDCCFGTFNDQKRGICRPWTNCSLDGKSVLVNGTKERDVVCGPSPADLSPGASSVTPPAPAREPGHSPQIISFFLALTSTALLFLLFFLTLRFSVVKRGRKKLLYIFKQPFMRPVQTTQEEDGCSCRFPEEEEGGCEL

B1: PR005744, BCMA×BCMA bispecific binding protein with the Fab-HCAb structure (structure 1) (bispecific antibody, human IgG1, kappa)
chain 1: QVQLVESGGGVVQPGRSLRLSCAATGFTFSSYGMYWVRQAPGKGLEWVAAIWNDGSNNYYADSVKGRFTISRDDSKNTLNLQMNSLRAEDTAMYYCARDRLPMASLRYFDWLGVMDAWGQGTSVTVSSASTKGPSVFPLAPSSKSTSGGTAALGCLVKDYFPEPVTVSWNSGALTSGVHTFPAVLQSSGLYSLSSVVTVPSSSLGTQTYICNVNHKPSNTKVDKKVEPKSC
chain 2: not shown
notes: no first linker; human IgG1 hinge and Fc
Kd [1]: 0.0279 nM
koff [1]: 4.87e-05 s⁻¹
kon [1]: 1.75e+06 M⁻¹ s⁻¹

B2: PR000701, PD-L1×4-1BB bispecific binding protein with the FIT-Ig structure (structure 5) (bispecific antibody, human IgG4 S228P, kappa)
chain 1: not shown
chain 2: EVQLVESGGGLVQPGGSLRLSCAASGFTFSSYWMSWVRQAPGKGLEWVANIKQEGSEKYYVDSVKGRFTISRDNAKNSLYLQMNSLRAEDTAVYYCARDRAVAGAFDIWGQGTMVTVSSASTKGPSVFPLAPSSKSTSGGTAALGCLVKDYFPEPVTVSWNSGALTSGVHTFPAVLQSSGLYSLSSVVTVPSSSLGTQTYICNVNHKPSNTKVDKKVEPKSC
light: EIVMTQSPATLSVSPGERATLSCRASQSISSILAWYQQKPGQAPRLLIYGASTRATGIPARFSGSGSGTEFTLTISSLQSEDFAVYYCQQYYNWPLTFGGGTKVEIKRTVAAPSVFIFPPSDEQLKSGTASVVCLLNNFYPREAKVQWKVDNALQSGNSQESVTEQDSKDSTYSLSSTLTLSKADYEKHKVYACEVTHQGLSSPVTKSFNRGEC
notes: FIT-Ig, symmetric tetravalent, three different chains; PD-L1 Fab of PR000265, 4-1BB Fab of PR000197 close to Fc; human IgG4
binding result (human PD-L1): binds
binding result (human 4-1BB): binds

B5: Anti-BCMA heavy-chain antibody PR001046_R2_4G10 (antibody, human IgG1, V domains shown)
VH: EVQLVETGGGLIQPGGSLRLSCAASGFTVSDSYMTWVRQAPGKGLEWVSVIFSGGRTYYSDSVKGRFTISRDNAKNTLYLQMNSLRAEDTALYYCARRNYDDTRGTDVFDIWGQGTMVTVSS
notes: Fully human heavy-chain-only antibody (HCAb), bivalent, no light chain; also called PR004433
Kd [1]: 0.0792 nM
koff [1]: 7.16e-05 s⁻¹
kon [1]: 904000 M⁻¹ s⁻¹

The next lines start with the values.

binding result (human PD-L1): binds
B3: PR004268, PD-L1×4-1BB bispecific binding protein with the VH-IgG structure (structure 4) (bispecific antibody)
light: DIQMTQSPSTLSASVGDRVTVTCRASQSIYIWLAWYQQKPGKAPNLLIYKASSLETGVPSRFSGSGSGTEFTLTISSLQPDDFATYYCQQYYGSSRTFGQGTKVEIKRTVAAPSVFIFPPSDEQLKSGTASVVCLLNNFYPREAKVQWKVDNALQSGNSQESVTEQDSKDSTYSLSSTLTLSKADYEKHKVYACEVTHQGLSSPVTKSFNRGEC
heavy: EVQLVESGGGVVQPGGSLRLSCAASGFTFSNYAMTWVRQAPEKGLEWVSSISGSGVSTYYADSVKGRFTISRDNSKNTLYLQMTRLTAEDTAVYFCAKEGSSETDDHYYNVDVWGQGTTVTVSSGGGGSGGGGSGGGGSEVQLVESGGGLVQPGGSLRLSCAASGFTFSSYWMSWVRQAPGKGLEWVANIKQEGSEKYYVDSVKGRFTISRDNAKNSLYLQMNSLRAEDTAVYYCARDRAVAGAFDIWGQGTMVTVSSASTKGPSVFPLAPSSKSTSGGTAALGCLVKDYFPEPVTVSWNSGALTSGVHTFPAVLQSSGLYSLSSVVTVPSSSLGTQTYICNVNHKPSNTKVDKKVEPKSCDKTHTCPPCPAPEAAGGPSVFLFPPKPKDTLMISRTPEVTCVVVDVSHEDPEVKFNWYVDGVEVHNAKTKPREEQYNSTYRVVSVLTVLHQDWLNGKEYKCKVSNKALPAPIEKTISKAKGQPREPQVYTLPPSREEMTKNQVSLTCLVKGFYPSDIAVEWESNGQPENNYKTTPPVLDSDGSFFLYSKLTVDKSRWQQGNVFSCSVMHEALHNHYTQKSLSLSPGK
notes: 4-1BB VH (PR001760) at the N-terminus of the heavy chain of PD-L1 IgG (PR000265); linker GS_15; human IgG1 (LALA)

binding result (human CTLA4): binds
B4: Anti-CTLA4 heavy-chain antibody CL5v3 (antibody, human IgG1, V domains shown)
VH: EVQLVESGGGLIQPGGSLRLSCAVSGFTVSKNYMSWVRQAPGKGLEWVSVVYSGGSKTYADSVKGRFTISRDNSKNTLYLQMNSLRAEDTAVYYCARAVPHSPSSFDIWGQGTMVTVSS
notes: Fully human heavy-chain-only antibody (HCAb), no light chain; also called PR000184
